Experimental data as given in PMC8902225.

Key:
[1] = target: wild-type equine follicle-stimulating hormone receptor (equine) (UniProt P47799)
[2] = target: equine follicle-stimulating hormone receptor A306T (equine) (UniProt P47799)
[3] = target: equine follicle-stimulating hormone receptor D566G (equine) (UniProt P47799)
[4] = target: wild-type equine follicle-stimulating hormone receptor (equine) (UniProt P47799); remark: listed apart in the source
[5] = target: equine follicle-stimulating hormone receptor N191I (equine) (UniProt P47799)
[6] = target: equine follicle-stimulating hormone receptor R633H (equine) (UniProt P47799)
Sequence of equine follicle-stimulating hormone receptor R633H (equine) (P47799 18-694 R633H): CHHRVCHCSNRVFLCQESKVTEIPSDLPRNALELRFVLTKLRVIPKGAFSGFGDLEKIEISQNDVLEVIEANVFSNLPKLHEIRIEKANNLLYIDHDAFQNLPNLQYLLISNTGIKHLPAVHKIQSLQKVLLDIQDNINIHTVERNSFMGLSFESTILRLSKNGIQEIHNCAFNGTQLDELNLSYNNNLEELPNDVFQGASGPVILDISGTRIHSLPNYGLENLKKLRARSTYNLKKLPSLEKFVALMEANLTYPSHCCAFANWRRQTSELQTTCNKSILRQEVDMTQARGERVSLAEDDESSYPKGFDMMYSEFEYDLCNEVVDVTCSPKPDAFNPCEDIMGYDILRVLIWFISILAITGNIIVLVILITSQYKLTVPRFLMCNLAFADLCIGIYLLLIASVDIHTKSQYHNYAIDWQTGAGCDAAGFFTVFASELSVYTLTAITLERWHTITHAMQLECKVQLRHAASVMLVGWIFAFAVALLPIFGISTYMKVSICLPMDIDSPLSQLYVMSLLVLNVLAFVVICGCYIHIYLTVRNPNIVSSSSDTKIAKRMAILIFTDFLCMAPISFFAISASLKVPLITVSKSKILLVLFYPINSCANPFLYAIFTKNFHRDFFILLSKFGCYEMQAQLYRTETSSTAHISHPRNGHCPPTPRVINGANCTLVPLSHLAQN

Sequence of Human FSH (follicle-stimulating hormone) (P01215 25-116): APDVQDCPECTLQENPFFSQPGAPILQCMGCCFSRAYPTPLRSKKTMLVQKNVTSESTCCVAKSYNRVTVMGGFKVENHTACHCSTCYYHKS
Sequence of Human FSH (follicle-stimulating hormone) (P01225 19-129): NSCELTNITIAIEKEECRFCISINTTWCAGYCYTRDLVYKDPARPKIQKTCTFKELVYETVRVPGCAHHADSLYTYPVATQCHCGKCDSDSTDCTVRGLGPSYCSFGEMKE
Sequence of wild-type equine follicle-stimulating hormone receptor (equine) (P47799 18-694): as the sequence (P47799 18-694 R633H) above, with H616R counted along it
Sequence of equine follicle-stimulating hormone receptor D566G (equine) (P47799 18-694 D566G): as the sequence (P47799 18-694 R633H) above, with D549G, H616R counted along it
Sequence of equine follicle-stimulating hormone receptor N191I (equine) (P47799 18-694 N191I): as the sequence (P47799 18-694 R633H) above, with N174I, H616R counted along it
Sequence of equine follicle-stimulating hormone receptor A306T (equine) (P47799 18-694 A306T): as the sequence (P47799 18-694 R633H) above, with A289T, H616R counted along it

## Human FSH (follicle-stimulating hormone) (from UniProt P01215 25-116; P01225 19-129) (ligand)
[1]
  EC50 of FSH-stimulated cAMP accumulation (HTRF) in transfected PathHunter EA-parental CHO-K1 cells: 0.765 µg/mL
[2]
  EC50 of FSH-stimulated cAMP accumulation (HTRF) in transfected PathHunter EA-parental CHO-K1 cells: 0.751 µg/mL
[3]
  EC50 of FSH-stimulated cAMP accumulation (HTRF) in transfected PathHunter EA-parental CHO-K1 cells: 0.648 µg/mL
[4]
  EC50 of FSH-stimulated cAMP accumulation (HTRF) in transfected PathHunter EA-parental CHO-K1 cells (series with the inactivating mutants): 0.718 µg/mL
[5]
  EC50 of FSH-stimulated cAMP accumulation (HTRF) in transfected PathHunter EA-parental CHO-K1 cells: 3.91 µg/mL
[6]
  EC50 of FSH-stimulated cAMP accumulation (HTRF) in transfected PathHunter EA-parental CHO-K1 cells: 1.16 µg/mL
